According to article PMC2134809:

Target: profilin (Acanthamoeba)
Test: affinity chromatography

Chain of Arp2/3 complex (P53487 whole entry, looked up, one chain of several): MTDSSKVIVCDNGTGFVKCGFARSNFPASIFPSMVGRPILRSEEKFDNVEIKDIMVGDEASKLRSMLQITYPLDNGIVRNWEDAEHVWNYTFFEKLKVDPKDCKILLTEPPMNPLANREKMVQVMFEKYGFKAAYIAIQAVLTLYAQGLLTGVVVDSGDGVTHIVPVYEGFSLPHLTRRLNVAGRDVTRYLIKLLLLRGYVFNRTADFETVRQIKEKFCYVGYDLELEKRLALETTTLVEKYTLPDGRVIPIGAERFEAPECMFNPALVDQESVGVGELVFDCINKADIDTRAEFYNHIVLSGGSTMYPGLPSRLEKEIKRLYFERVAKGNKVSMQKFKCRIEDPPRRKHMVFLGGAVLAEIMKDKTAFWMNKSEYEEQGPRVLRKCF

percent of the complex bound to the column that holds profilin: 10%
Substance: Arp2/3 complex (from UniProt P53487 1-388)
